Laboratory results as given in patent publication US20100279930A1 (published 2010).
Read-outs that look alike come from different tables or passages of the source.

Experiments:
[1] = biological target: T1, human Y4 receptor (human, UniProt P50391 1-375); test: 125I-PP displacement
[2] = biological target: T1, human Y4 receptor; test: 125I-PP displacement; remark: listed apart in the source

T1 sequence (P50391 whole entry): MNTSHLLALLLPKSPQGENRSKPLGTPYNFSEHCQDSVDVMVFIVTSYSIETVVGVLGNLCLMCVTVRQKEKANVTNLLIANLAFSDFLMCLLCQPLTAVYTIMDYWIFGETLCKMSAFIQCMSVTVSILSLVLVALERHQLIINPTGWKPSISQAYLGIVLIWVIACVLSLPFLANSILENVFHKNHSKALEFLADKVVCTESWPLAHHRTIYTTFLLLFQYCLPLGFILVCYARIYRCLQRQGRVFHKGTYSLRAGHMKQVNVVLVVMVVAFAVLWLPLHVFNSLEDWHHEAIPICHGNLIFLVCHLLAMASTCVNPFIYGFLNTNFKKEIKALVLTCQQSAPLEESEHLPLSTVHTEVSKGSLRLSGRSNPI

| Binder | IC50 [1] [nM] | IC50 [2] [nM] |
| --- | --- | --- |
| PAPLEPTYPGDDATPEEMAKYAAELRRYINKLTRPRY [4057445] | 0.107 | – |
| HPLEPEYPGDDATPQQMARYAAELRRYINKLTRPRY [4057275] | 0.162 | – |
| GPLEPEYPGDDATPQQMARYAAELRRYINKLTRPRY [4057276] | 0.085 | – |
| DPLEPEYPGDDATPQQMARYAAELRRYINKLTRPRY [4057277] | 0.093 | – |
| GAPLEPTYPGDNATPEQLAKYYSELRRYINRLTRPRY [4060276] | – | 0.073 |
| GAPLEPTYPGDNATPEQKAKYYSELRRYINKLTRPRY [4060279] | – | 0.067 |
| GAPLEPTYPGDDATPEQLAKYYSELRRYINKLTRPRY [4060313] | – | 0.097 |
| PLEPVYPGDNATPEQMAKYAADLRRYINKLTRPRY [4057261] | 0.056 | – |
| GAPLEPEYPGDNATPEQKAKYAAALRRYINRLTRPRY [4060301] | – | 0.036 |
| GAPLEPEYPGDDATPEQKARYAAALRRYINHLTRPRY [4060312] | – | 0.101 |
| GAPLEPEYPGDDATPEQKARYAAALRRYINKLTRPRY [4060311] | – | 0.099 |
| GAPLEPTYPGDDATPEQLAKYYSELRRYINHLTRPRY [4060306] | – | 0.098 |
| GAPLEPTYPGDDATPEQLAKYAAELRRYINHLTRPRY [4060308] | – | 0.117 |
| PAPLEPTYPGDDATPEQLAKYYSELRRYINKLTRPRY [4060314] | – | 0.084 |
| PLEPEYPGDDATPQQMAHYAAELRRYINKLTRPRY [4057138] | 0.086 | – |
| PLEPVYPGDNATPEQMARYAAELRRYINKLTRPRY [4057159] | 0.053 | – |
| AAPLEPEYPGDDATPQQMAHYAAELRRYINKLTRPRY [4057141] | 0.114 | – |
| DAPLEPEYPGDDATPQQMARYAAELRRYINKLTRPRY [4057135] | 0.097 | – |
| AKPLEPEYPGDDATPQQMARYAAELRRYINKLTRPRY [4057280] | 0.049 | – |

| Binder | IC50 [1] [nM] | IC50 [2] [nM] |
| --- | --- | --- |
| AAPLEPEYPGDDATPQQMAKYAADLRRYINKLTRPRY [4057259] | 0.083 | – |
| HAPLEPEYPGDDATPQQMARYAAELRRYINKLTRPRY [4057137] | 0.092 | – |
| PAPLEPTYPGDDATPQEMAKYAAELRRYINKLTRPRY [4057444] | 0.116 | – |
| GAPLEPEYPGDDATPQQMARYAAELRRYINKLTRPRY [4057136] | 0.064 | – |
| PAPLEPVYPGDNATPEQIAKYAADLRRYINKLTRPRY [4057144] | 0.083 | – |
| GAPLEPVYPGDNATPEQMARYAAELRRYINKLTRPRY [4057163] | 0.088 | – |
| PAPLEPTYPGDNATPEQMAKYAADLRRYINKLTRPRY [4057229] | 0.143 | – |
| PAPLEPVYPGDNATPEQMARYAAELRRYINKLTRPRY [4057162] | 0.06 | – |
| PAPLEPTYPGDNATPEQLAKYAAELRRYINKLTRPRY [4057440] | 0.089 | – |
| PAPLEPVYPGDNATPEQMARYAADLRRYINKLTRPRY [4057335] | 0.08 | – |
| PAPLEPVYPGDDATPQQMAKYAADLRRYINKLTRPRY [4057273] | 0.061 | – |
| PAPLEPFYPGDNATPEQMAKYAADLRRYINKLTRPRY [4057233] | 0.13 | – |
| HAPLEPVYPGDNATPEQMARYAADLRRYINKLTRPRY [4057338] | 0.078 | – |
| PAPLEPHYPGDNATPEQMAKYAADLRRYINKLTRPRY [4057231] | 0.049 | – |
| PAPLEPVYPGDNATPEQVAKYAADLRRYINKLTRPRY [4057146] | 0.08 | – |
| PAPLEPVYPGDNATPEQMAKYAAELRRYINKLTRPRY [4057151] | 0.056 | – |
| PAPLEPEYPGDNATPEQMAKYAADLRRYINKLTRPRY [4057232] | 0.128 | – |
| PAPLEPTYPGDNATPEEMAKYAAELRRYINKLTRPRY [4057446] | 0.109 | – |

Next, values leading:

| IC50 [1] [nM] | IC50 [2] [nM] | Binder |
| --- | --- | --- |
| – | 0.153 | GAPLEPEAPGDNATPEQMAKYYSELRRYINKLTRPRY [4060691] |
| – | 0.109 | PAPLEPKAPGDNATPEQMAKYYSELRRYIDKLTRPRY [4060680] |
| – | 0.097 | GAPLEPTYPGDNATPEELAKYYSELRRYINKLTRPRY [4060315] |
| – | 0.131 | GAPLEPTYPGDNATPEQLAKYYSELRRYIDKLTRPRY [4060606] |
| – | 0.121 | GAPLEPVYPGDNATPEQMARYYSELRRYIDKLTRPRY [4060604] |
| – | 0.158 | AAPLEPTYPGDNATPEQKAKYAAELRRYIDKLTRPRY [4061082] |
| – | 0.105 | GAPLEPTYPGDNATPEQKAKYAAELRRYIDKLTRPRY [4061080] |
| – | 0.114 | GAPLEPEYPGDNATPEQMAKYAAALRRYIDKLTRPRY [4060896] |
| – | 0.151 | AAPLEPKYPGDNATPEQLAKYAAELRRYIDKLTRPRY [4060696] |
| – | 0.088 | GAPLEPEYPGDNATPEQKAKYAAALRRYIDKLTRPRY [4060601] |
| – | 0.171 | PAPLEPHYPGDNATPEEMAKYAAELRRYIDKLTRPRY [4060687] |
| – | 0.091 | AAPLEPTYPGDNATPEQMARYAAALRRYIDKLTRPRY [4060695] |
| – | 0.153 | PLEPVYPGDNATPEQLAKYAAELRRYIDKLTRPRY [4060899] |
| – | 0.079 | AAPLEPTAPGDNATPEQMARYAAALRRYINKLTRPRY [4060694] |
| – | 0.102 | PAPLEPKYPGDNATPEQMAKYYSELRRYIDRLTRPRY [4060603] |
| – | 0.121 | PAPLEPHYPGDNATPEEMAKYYSELRRYIDKLTRPRY [4060895] |
| – | 0.101 | PAPLEPTYPGDNATPEELAKYYSELRRYINKLTRPRY [4060316] |
| – | 0.076 | GAPLEPEYPGDDATPQQKARYAAELRRYINKLTRPRY [4060684] |
| – | 0.136 | YAPLEPEAPGDDATPQQKARYAAELRRYINKLTRPRY [4060681] |
| – | 0.065 | PAPLEPEYPGDDATPQQKARYAAELRRYINKLTRPRY [4060685] |
| – | 0.055 | AAPLEPEYPGDDATPQQKARYAAELRRYINKLTRPRY [4060686] |
| – | 0.218 | PAPLEPVYPGDNATPEQKAKYAAELRRYIDHLTRPRY [4061087] |
| – | 0.21 | PAPLEPTYPGDNATPEQKAKYAAELRRYIDKLTRPRY [4061081] |
